Where “and” joins values, the source holds several entries; their conditions need not be identical. Equal entries are not always repeated.
Experiments:
[1] = target: T1, ECF02_915
T1 chain: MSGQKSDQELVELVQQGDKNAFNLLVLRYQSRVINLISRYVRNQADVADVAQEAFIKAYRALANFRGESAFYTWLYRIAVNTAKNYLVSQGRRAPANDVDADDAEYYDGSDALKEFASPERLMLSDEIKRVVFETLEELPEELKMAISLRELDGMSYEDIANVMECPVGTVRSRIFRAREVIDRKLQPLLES

[2] = target: ECF27_1331
[3] = target: T2, ECF37_2513
T2 chain: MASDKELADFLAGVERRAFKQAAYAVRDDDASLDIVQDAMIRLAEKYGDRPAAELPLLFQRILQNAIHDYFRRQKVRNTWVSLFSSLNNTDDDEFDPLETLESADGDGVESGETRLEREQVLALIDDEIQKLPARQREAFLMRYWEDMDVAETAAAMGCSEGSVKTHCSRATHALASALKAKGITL

[4] = target: T3, ECF11_987
T3 chain: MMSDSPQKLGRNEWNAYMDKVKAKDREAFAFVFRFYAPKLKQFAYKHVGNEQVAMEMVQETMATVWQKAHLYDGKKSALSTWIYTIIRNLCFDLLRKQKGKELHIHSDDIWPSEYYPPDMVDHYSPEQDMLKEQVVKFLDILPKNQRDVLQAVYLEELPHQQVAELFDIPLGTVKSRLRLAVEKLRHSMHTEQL

[5] = target: T4, ECF17_1691
T4 chain: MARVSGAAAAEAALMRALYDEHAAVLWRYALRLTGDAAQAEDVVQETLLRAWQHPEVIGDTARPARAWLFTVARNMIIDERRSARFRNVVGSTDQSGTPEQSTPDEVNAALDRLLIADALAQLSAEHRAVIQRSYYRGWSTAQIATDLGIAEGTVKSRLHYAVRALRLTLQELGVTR

[6] = target: T5, ECF25_1645
T5 chain: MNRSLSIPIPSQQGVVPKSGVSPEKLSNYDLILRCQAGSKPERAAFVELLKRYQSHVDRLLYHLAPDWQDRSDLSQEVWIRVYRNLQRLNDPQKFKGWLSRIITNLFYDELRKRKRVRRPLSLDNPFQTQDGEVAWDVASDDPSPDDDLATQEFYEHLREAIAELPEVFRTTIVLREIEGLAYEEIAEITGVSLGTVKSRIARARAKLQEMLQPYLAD

[7] = target: T6, ECF25_1643
T6 chain: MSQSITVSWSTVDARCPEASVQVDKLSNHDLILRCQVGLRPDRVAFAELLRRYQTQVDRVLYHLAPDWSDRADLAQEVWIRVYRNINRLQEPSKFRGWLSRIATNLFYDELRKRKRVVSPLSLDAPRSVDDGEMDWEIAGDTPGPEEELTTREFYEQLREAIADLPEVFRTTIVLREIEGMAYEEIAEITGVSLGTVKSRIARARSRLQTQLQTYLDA

[8] = target: T7, ECF01_3473
T7 chain: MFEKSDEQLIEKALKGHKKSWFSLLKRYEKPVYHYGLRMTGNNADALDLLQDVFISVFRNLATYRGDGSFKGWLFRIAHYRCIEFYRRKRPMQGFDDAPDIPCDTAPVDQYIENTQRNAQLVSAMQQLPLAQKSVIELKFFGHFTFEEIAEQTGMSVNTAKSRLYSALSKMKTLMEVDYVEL

[9] = target: T8, ECF35_3582
T8 chain: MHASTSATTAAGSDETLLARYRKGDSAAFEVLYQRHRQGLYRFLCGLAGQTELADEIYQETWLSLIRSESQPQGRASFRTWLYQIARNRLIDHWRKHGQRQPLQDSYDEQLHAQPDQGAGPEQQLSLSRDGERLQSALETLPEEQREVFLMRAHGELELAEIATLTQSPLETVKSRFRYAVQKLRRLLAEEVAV

[10] = target: T9, ECF30_35
T9 chain: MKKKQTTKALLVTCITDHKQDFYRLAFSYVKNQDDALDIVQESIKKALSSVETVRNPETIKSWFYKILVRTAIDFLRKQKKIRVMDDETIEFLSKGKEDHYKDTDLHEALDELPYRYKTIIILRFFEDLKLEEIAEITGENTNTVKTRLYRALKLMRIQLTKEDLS

[11] = target: T10, ECF15_436
T10 chain: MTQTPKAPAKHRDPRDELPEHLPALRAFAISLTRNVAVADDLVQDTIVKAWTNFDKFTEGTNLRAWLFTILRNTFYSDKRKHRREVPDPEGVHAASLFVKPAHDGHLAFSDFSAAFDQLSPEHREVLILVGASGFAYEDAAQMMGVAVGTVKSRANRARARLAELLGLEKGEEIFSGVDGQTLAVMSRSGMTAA

[12] = target: T11, ECF16_3622
T11 chain: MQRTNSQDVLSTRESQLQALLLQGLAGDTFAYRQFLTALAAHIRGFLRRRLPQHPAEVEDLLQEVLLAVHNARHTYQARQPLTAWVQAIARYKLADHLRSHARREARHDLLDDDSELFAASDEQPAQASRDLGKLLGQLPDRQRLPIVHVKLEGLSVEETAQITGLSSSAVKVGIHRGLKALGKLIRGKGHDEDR

[13] = target: T12, ECF03_1244
T12 chain: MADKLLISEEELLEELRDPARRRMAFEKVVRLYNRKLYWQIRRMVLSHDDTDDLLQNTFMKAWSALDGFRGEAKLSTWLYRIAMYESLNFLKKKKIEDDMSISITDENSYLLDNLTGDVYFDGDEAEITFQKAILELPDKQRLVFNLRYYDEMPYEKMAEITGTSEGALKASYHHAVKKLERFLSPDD

[14] = target: T13, ECF34_1384
T13 chain: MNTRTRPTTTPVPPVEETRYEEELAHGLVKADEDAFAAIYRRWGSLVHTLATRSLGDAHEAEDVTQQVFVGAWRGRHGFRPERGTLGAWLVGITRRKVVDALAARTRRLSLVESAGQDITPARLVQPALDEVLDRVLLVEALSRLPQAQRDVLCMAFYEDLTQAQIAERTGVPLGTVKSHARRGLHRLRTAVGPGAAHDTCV

[15] = target: T14, ECF28_1040
T14 chain: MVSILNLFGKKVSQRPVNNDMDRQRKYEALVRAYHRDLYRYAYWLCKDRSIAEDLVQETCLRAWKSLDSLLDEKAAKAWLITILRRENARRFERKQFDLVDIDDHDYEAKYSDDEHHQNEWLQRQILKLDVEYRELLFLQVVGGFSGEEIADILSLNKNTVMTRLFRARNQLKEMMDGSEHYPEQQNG

B1: AS15_524 (protein)
chain: MNFGVEDMIEHVPMEDKRKGAAALDEARLRQQAIGVKLRQMFDEVVNEPVPDEFLAILRKAERPAGGE
fold repression [1]: 2.67 | fold repression [2]: 11.5 | fold repression [3]: 4.17 | fold repression [4]: 3.74 | fold repression [5]: 5.16 | fold repression [6]: 3.69 | fold repression [7]: 2.89 and 3.07 | fold repression [8]: 9.89 | fold repression [9]: 2.42 | fold repression [10]: 5.98 | fold repression [11]: 16.7 | fold repression [12]: 7.87 | fold repression [13]: 2.96 | fold repression [14]: 5.15 | fold repression [15]: 4.67

B2: AS16_973 (protein)
chain: MKTDDLIALLAAGEGPVPRHAVGRRMAVAALGGLTAALLLTITLYGVRSDITEVAQTPLFWGKVAFPTSLALIGLWLTSRLARPGGKGAAGWKMLGLPLLLVWCGAAVSIAGAPVDARADLLFGRTWRTCALNIALLSVPAFVTVFWALKGLAPTRLRLAGAAGGLLAGSSATVAYCLHCPEMGVPFWGVWYVLGMLVPTVLGAWWGPRMLRW
fold repression [1]: 0.403 | fold repression [2]: 0.929 | fold repression [3]: 1.04 | fold repression [4]: 1.32 | fold repression [5]: 0.852 | fold repression [6]: 0.538 | fold repression [7]: 0.594 and 0.667 | fold repression [8]: 0.602 | fold repression [9]: 0.722 | fold repression [10]: 0.463 | fold repression [11]: 0.884 | fold repression [12]: 57 | fold repression [13]: 0.783 | fold repression [14]: 0.757 | fold repression [15]: 1.39

B3: AS16_3622 (protein)
chain: MMKTDELISLLATAEGPVDRHALARRLGLALLAGLLGALLLTVALYGVRSDLAEVARTPLFWAKVALPTSLALLGLWLTQRLARPGVRGGALWGLLGVPLLLVWLGAAISLFGAPPEARADLIFGRTWRTCALNITLLSTPVFIAVFWALRGLAPTRLRQAGAAGGLLAGSTATLVYCLHCPEMGVPFWGLWYLLGMLVPTLLGAVLGPRLLRW
fold repression [1]: 1.26 | fold repression [2]: 3.55 | fold repression [3]: 4.97 | fold repression [4]: 4.23 | fold repression [5]: 2.43 | fold repression [6]: 1.53 | fold repression [7]: 1.55 and 1.67 | fold repression [8]: 2.63 | fold repression [9]: 1.67 | fold repression [10]: 0.992 | fold repression [11]: 4.75 | fold repression [12]: 254 | fold repression [13]: 2.09 | fold repression [14]: 2.8 | fold repression [15]: 3.02

B4: AS02_915 (protein)
chain: MEKTGQEWVSASVDGETDRQTLAELAADTDSHAKWQRYHLMGDAMRDELPQAMPLDLSARIAAALEDEPTILAPKVEREATQAPSRAVVVPFMRQLGQYGIAAAVALMAVVGVQNYQSTQDDAPLPVLNTRPLVGTATPVSLQTGPVANQNQGNANDQLLEQRRRINAYLQDHMLQQRLNTGAVVDDNSEVTPIPVNR
fold repression [1]: 29.2 | fold repression [2]: 4.27 | fold repression [3]: 2.48 | fold repression [4]: 3.88 | fold repression [5]: 2.73 | fold repression [6]: 1.99 | fold repression [7]: 3.46 and 2.7 | fold repression [8]: 5.57 | fold repression [9]: 2.65 | fold repression [10]: 2.79 | fold repression [11]: 3.47 | fold repression [12]: 4.3 | fold repression [13]: 3.01 | fold repression [14]: 3.28 | fold repression [15]: 2.03

B5: AS20_992 (protein)
chain: MTPERFVHLADAYGADLQRWPSAERAAAQALLDCGDAQAVAALRQAHWLDSQLDRYQVPAPSPALAQRIIAAAQQPGAPFWSRYAGWLASLGWVGVGLTGVAAGMLAVALSLPLSTSAEALPSVFDQSDAEFVLSINAEEAEQ
fold repression [1]: 1.93 | fold repression [2]: 2.11 | fold repression [3]: 1.98 | fold repression [4]: 2.81 | fold repression [5]: 2.05 | fold repression [6]: 1.3 | fold repression [7]: 1.63 and 1.33 | fold repression [8]: 2.3 | fold repression [9]: 1.6 | fold repression [10]: 1.61 | fold repression [11]: 1.32 | fold repression [12]: 1.71 | fold repression [13]: 1.39 | fold repression [14]: 1.64 | fold repression [15]: 2.12

Source: article PMC3817407
